According to patent US20240368354A1, “STEROID ACID-BASED HYDROGELS” (priority 2021, published 2024):
Where a SMILES comes first, the peptide text is derived from it. Bridges are numbered along the chain shown (N, C = ends). Roman numbers before positions name the chains, in order. Where no end group is shown, it is not given here. The star is where a group is joined. Chenodeoxycholyl = C[C@H](CCC(=O)*)[C@H]1CC[C@H]2[C@@H]3[C@H](O)C[C@@H]4C[C@H](O)CC[C@]4(C)[C@H]3CC[C@]12C; Cholyl = C[C@H](CCC(=O)*)[C@H]1CC[C@H]2[C@@H]3[C@H](O)C[C@@H]4C[C@H](O)CC[C@]4(C)[C@H]3C[C@H](O)[C@]12C

Legend:
[1] = system: JIMT1 cells (breast cancer cell line); test: Cell cytotoxicity assay (PrestoBlue); type: cell-based; conditions: for toxicity of dimer hydrogels compared with monomers: cells treated three days, PrestoBlue, dimers versus monomers
Protocol: 5000 JIMT1 cells (breast cancer cell line) per well (96-well plate) were plated. After one day, cells were treated with the different steroid acid-peptide conjugates or hydrogels for three days. Cell survival was determined by PrestoBlue™ following the manufacturer's protocol.
Hydrogels are commonly used for drug delivery and in vivo applications, and therefore assessing their safety profiles is highly pertinent. Cytotoxicity of hydrogels was evaluated via a cytotoxicity assay by incubating cells with hydrogels formed by monomers or steroid acid-peptide conjugates, as described in Example 1.

[2] = Hydrogel formation of steroid acid-peptide monomer conjugates upon resuspension in solvent; type: physicochemical; conditions: for hydrogel formation: 6.67 mg/ml, cell medium (complete DMEM with human cells), 2 hours of incubation
Protocol: Specific hydrogel formation was conducted by resuspending the powder of each steroid acid-peptide monomer or dimer conjugate in phosphate buffered saline (PBS) 1X (pH 7.4), pure water, complete cell medium (DMEM), DMSO, or alcohol:water mixtuLes (e.g., methanol:water (40:60)) at room temperature or 37° C. at a concentration between 6-30 mg/mL.
Hydrogel formation was evaluated upon dissolution of the different peptide or steroid acid-peptide conjugates described in FIG. 1 in different solvents. […] Hydrogel structure (soft vs. hard) and color/clarity (translucent vs. opaque) varied among the different conditions. […] At concentrations lower than 10 mg/mL, all steroid acid-hnRNPA1 NLS conjugates tested formed liquid droplets in PBS at room temperature. Monomers of GWG-SV40NLS conjugated to steroid acids were also shown to form hydrogels (data not shown).

[3] = monomers, room temperature and 37° C.

Molecule: CSCC[C@H](NC(=O)[C@@H]1CCCN1C(=O)CNC(=O)[C@H](Cc1ccccc1)NC(=O)[C@H](CC(N)=O)NC(=O)[C@H](CO)NC(=O)[C@H](CS)NC(=O)CC[C@@H](C)[C@H]1CC[C@H]2[C@@H]3[C@H](O)C[C@@H]4C[C@H](O)CC[C@]4(C)[C@H]3CC[C@]12C)C(=O)N[C@@H](CCCCN)C(=O)NCC(=O)NCC(=O)N[C@@H](CC(N)=O)C(=O)N[C@@H](Cc1ccccc1)C(=O)NCC(=O)NCC(=O)N[C@@H](CCCNC(=N)N)C(=O)N[C@@H](CO)C(=O)N[C@@H](CO)C(=O)NCC(=O)N1CCC[C@H]1C(=O)N[C@@H](Cc1ccc(O)cc1)C(N)=O [CDCA-hnRNPA1 M9 NLS] (Chenodeoxycholyl-CSNFGPMKGGNFGGRSSGPY-NH2)
- concentrations at which viability of cells was reduced ([1]; JIMT1 cells, three days treatment, hydrogels formed by monomers): higher than 10 μg/mL

Molecule: CSCC[C@H](NC(=O)[C@@H]1CCCN1C(=O)CNC(=O)[C@H](Cc1ccccc1)NC(=O)[C@H](CC(N)=O)NC(=O)[C@H](CO)NC(=O)[C@H](CSSC[C@H](NC(=O)CC[C@@H](C)[C@H]1CC[C@H]2[C@@H]3[C@H](O)C[C@@H]4C[C@H](O)CC[C@]4(C)[C@H]3CC[C@]12C)C(=O)N[C@@H](CO)C(=O)N[C@@H](CC(N)=O)C(=O)N[C@@H](Cc1ccccc1)C(=O)NCC(=O)N1CCC[C@H]1C(=O)N[C@@H](CCSC)C(=O)N[C@@H](CCCCN)C(=O)NCC(=O)NCC(=O)N[C@@H](CC(N)=O)C(=O)N[C@@H](Cc1ccccc1)C(=O)NCC(=O)NCC(=O)N[C@@H](CCCNC(=N)N)C(=O)N[C@@H](CO)C(=O)N[C@@H](CO)C(=O)NCC(=O)N1CCC[C@H]1C(=O)N[C@@H](Cc1ccc(O)cc1)C(N)=O)NC(=O)CC[C@@H](C)[C@H]1CC[C@H]2[C@@H]3[C@H](O)C[C@@H]4C[C@H](O)CC[C@]4(C)[C@H]3CC[C@]12C)C(=O)N[C@@H](CCCCN)C(=O)NCC(=O)NCC(=O)N[C@@H](CC(N)=O)C(=O)N[C@@H](Cc1ccccc1)C(=O)NCC(=O)NCC(=O)N[C@@H](CCCNC(=N)N)C(=O)N[C@@H](CO)C(=O)N[C@@H](CO)C(=O)NCC(=O)N1CCC[C@H]1C(=O)N[C@@H](Cc1ccc(O)cc1)C(N)=O [Dimerized CDCA-hnRNPA1 M9 NLS] (I: Chenodeoxycholyl-CSNFGPMKGGNFGGRSSGPY-NH2 / II: Chenodeoxycholyl-CSNFGPMKGGNFGGRSSGPY-NH2; disulfide I:1-II:1)
- cell viability ([1]; JIMT1 cells, three days treatment, all concentrations tested up to 100 μg/mL): Viability was maintained

Molecule: CC[C@H](C)[C@H](NC(=O)CNC(=O)[C@H](CSSC[C@H](NC(=O)CC[C@@H](C)[C@H]1CC[C@H]2[C@@H]3[C@H](O)C[C@@H]4C[C@H](O)CC[C@]4(C)[C@H]3C[C@H](O)[C@]12C)C(=O)NCC(=O)N[C@H](C(=O)NCC(=O)N[C@@H](C)C(=O)N[C@H](C(=O)N[C@@H](CC(C)C)C(=O)N[C@@H](CCCCN)C(=O)N[C@H](C(=O)N[C@@H](CC(C)C)C(=O)N[C@H](C(=O)N[C@H](C(=O)NCC(=O)N[C@@H](CC(C)C)C(=O)N1CCC[C@H]1C(=O)N[C@@H](C)C(=O)N[C@@H](CC(C)C)C(=O)N[C@H](C(=O)N[C@@H](CO)C(=O)N[C@@H](Cc1c[nH]c2ccccc12)C(=O)N[C@H](C(=O)N[C@@H](CCCCN)C(=O)N[C@@H](CCCNC(=N)N)C(=O)N[C@@H](CCCCN)C(=O)N[C@@H](CCCNC(=N)N)C(=O)N[C@@H](CCC(N)=O)C(=O)N[C@@H](CCC(N)=O)C(N)=O)[C@@H](C)CC)[C@@H](C)CC)[C@@H](C)O)[C@@H](C)O)C(C)C)C(C)C)[C@@H](C)CC)NC(=O)CC[C@@H](C)[C@H]1CC[C@H]2[C@@H]3[C@H](O)C[C@@H]4C[C@H](O)CC[C@]4(C)[C@H]3C[C@H](O)[C@]12C)C(=O)NCC(=O)N[C@@H](C)C(=O)N[C@H](C(=O)N[C@@H](CC(C)C)C(=O)N[C@@H](CCCCN)C(=O)N[C@H](C(=O)N[C@@H](CC(C)C)C(=O)N[C@H](C(=O)N[C@H](C(=O)NCC(=O)N[C@@H](CC(C)C)C(=O)N1CCC[C@H]1C(=O)N[C@@H](C)C(=O)N[C@@H](CC(C)C)C(=O)N[C@H](C(=O)N[C@@H](CO)C(=O)N[C@@H](Cc1c[nH]c2ccccc12)C(=O)N[C@H](C(=O)N[C@@H](CCCCN)C(=O)N[C@@H](CCCNC(=N)N)C(=O)N[C@@H](CCCCN)C(=O)N[C@@H](CCCNC(=N)N)C(=O)N[C@@H](CCC(N)=O)C(=O)N[C@@H](CCC(N)=O)C(N)=O)[C@@H](C)CC)[C@@H](C)CC)[C@@H](C)O)[C@@H](C)O)C(C)C)C(C)C [dimerized CA-Melittin]
- toxicity of dimer hydrogels compared with monomers [1]: significantly less toxic

Molecule: CSCC[C@H](NC(=O)[C@H](CSSC[C@H](NC(=O)CC[C@@H](C)[C@H]1CC[C@H]2[C@@H]3[C@H](O)C[C@@H]4C[C@H](O)CC[C@]4(C)[C@H]3C[C@H](O)[C@]12C)C(=O)N[C@@H](CCSC)C(=O)NCC(=O)N[C@@H](CCCNC(=N)N)C(=O)N[C@H](C(=O)N[C@@H](CCCNC(=N)N)C(=O)N[C@H](C(=O)N[C@@H](CCCCN)C(=O)N[C@H](C(=O)N[C@H](C(=O)N[C@@H](CCCCN)C(=O)N[C@@H](CCCCN)C(=O)N[C@@H](C)C(=O)N[C@@H](C)C(=O)NCC(=O)NCC(N)=O)C(C)C)[C@@H](C)O)[C@@H](C)O)C(C)C)NC(=O)CC[C@@H](C)[C@H]1CC[C@H]2[C@@H]3[C@H](O)C[C@@H]4C[C@H](O)CC[C@]4(C)[C@H]3C[C@H](O)[C@]12C)C(=O)NCC(=O)N[C@@H](CCCNC(=N)N)C(=O)N[C@H](C(=O)N[C@@H](CCCNC(=N)N)C(=O)N[C@H](C(=O)N[C@@H](CCCCN)C(=O)N[C@H](C(=O)N[C@H](C(=O)N[C@@H](CCCCN)C(=O)N[C@@H](CCCCN)C(=O)N[C@@H](C)C(=O)N[C@@H](C)C(=O)NCC(=O)NCC(N)=O)C(C)C)[C@@H](C)O)[C@@H](C)O)C(C)C [dimerized CA-NLS1 RPS17] (I: Cholyl-CMGRVRTKTVKKAAGG-NH2 / II: Cholyl-CMGRVRTKTVKKAAGG-NH2; disulfide I:1-II:1)
- toxicity of dimer hydrogels compared with monomers [1]: significantly less toxic

Molecule: CA-Melittin: cholic acid conjugated to the peptide melittin (SEQ ID NO: 16)
- hydrogel formation in monomer form [2]: not able to form a hydrogel

Molecule: CA-NLS1 RPS17: cholic acid conjugated to NLS1 RPS17 peptide (SEQ ID NO: 9) (MGRVRTKTVKKAAGG; also: cholic acid conjugate, site not given here)
- hydrogel formation in monomer form [2]: not observed to form a hydrogel

Molecule: GCDCA-hnRNPA1 NLS: glycochenodeoxycholic acid (GCDCA) conjugated to hnRNPA1 M9 NLS peptide (SEQ ID NO: 4) (SNFGPMKGGNFGGRSSGPY; also: glycochenodeoxycholic acid (GCDCA) conjugate, site not given here)
- time after which hydrogel formation was induced ([2]; monomer, final concentration 6.67 mg/mL, complete DMEM containing human cells, room temperature and 37° C.): 30 min
- hydrogel formation [2, 3]: formed a hydrogel

Molecule: GDCA-hnRNPA1 NLS: glycodeoxycholic acid (GDCA) conjugated to hnRNPA1 M9 NLS peptide (SEQ ID NO: 4) (SNFGPMKGGNFGGRSSGPY; also: glycodeoxycholic acid (GDCA) conjugate, site not given here)
- hydrogel formation [2, 3]: formed a hydrogel

Molecule: GUDCA-hnRNPA1 NLS: glycoursodeoxycholic acid (GUDCA) conjugated to hnRNPA1 M9 NLS peptide (SEQ ID NO: 4) (SNFGPMKGGNFGGRSSGPY; also: glycoursodeoxycholic acid (GUDCA) conjugate, site not given here)
- incubation time after which a hydrogel formed ([2]; 20 mg/ml in pure water, room temperature): 1 to 3 h
- hydrogel formation [2, 3]: formed a hydrogel

Molecule: LCA-hnRNPA1 NLS: lithocholic acid (LCA) conjugated to hnRNPA1 M9 NLS peptide (SEQ ID NO: 4) (SNFGPMKGGNFGGRSSGPY; also: lithocholic acid (LCA) conjugate, site not given here)
- hydrogel formation following resuspension ([2]; monomers, 25 mg/mL in PBS 1X (pH 7.4), room temperature): a hydrogel spontaneously formed within a matter of seconds
